Columns and labels:
[1] = molecular target: 48d.cl IC, fusion version (gpCore + 48d heavy chain fusion, Fab-Fab-crosslinked K126C) (HIV-1 strain BG505); assay: native gel or EMSA
[2] = molecular target: 48d.cl IC, 3 plasmid version (Fab-Fab-crosslinked, K126C) (HIV-1 strain BG505); assay: native gel or EMSA

| Substance | stoichiometry N [1] | stoichiometry N [2] |
| --- | --- | --- |
| wtVRC01 (antibody) | 1 | 1 |
| wtA32 (antibody) | 2 | 2 |

Source: article PMC12846365
